Results: the supplement of paper PMC10065799, “High-throughput profiling of sequence recognition by tyrosine kinases and SH2 domains using bacterial peptide display” (eLife, 2023)

target: Hck (UniProt P08631); assay: phosphorylation enrichment, bacterial display (enrichment ratio); higher = better substrate or ligand; peptides without Tyr show the background
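Note: 11-residue human phosphosite peptides and single-mutation variants displayed on the E. coli surface, counted by deep sequencing, each peptide's frequency after selection divided by its frequency in the unselected input library; frequency after pTyr selection over input frequency; kinase dosed for 20-30% of maximal phosphorylation in three min.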

Hck, sequence (P08631 whole entry, looked up): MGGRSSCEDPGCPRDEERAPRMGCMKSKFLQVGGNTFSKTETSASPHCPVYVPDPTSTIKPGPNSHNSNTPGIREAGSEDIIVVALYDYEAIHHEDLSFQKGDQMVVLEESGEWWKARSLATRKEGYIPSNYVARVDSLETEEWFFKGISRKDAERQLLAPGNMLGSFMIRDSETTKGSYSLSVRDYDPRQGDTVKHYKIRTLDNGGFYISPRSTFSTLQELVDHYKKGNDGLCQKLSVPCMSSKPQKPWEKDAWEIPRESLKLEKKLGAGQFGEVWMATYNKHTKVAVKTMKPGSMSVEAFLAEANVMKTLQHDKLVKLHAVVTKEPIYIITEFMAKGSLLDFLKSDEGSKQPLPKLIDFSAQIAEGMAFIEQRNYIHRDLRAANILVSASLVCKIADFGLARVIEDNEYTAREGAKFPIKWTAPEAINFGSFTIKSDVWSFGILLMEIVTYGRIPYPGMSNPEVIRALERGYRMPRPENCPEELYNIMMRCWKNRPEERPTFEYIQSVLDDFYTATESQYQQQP

Compared with ADFPDYKFRPR [SOX11_Y116_YF], KLSFSYGQALQ [ALDOB_Y302_R304Q] is lower in phosphorylation enrichment: 0.501 for the first, 0.383 for the second.

First: FSEVRYVKEPF [HIPK4_Y170_YF]
Second: VIDGKYAFKPK [GTF2E2_Y137]
The phosphorylation enrichment of the first is higher: 0.483 for the first, 0.412 for the second.

Going from DIPIRYSITGV [CDH4_Y205] to VVKLAYNENDN [CAMKK2_Y183], the phosphorylation enrichment rises from 0.45 to 0.527.

Compared with VQEDIYDEFVV [ALDH2_Y332_E337V], IRKKYYRAILE [CHD7_Y1218_Q1214R] is lower in phosphorylation enrichment: 2.81 for the first, 0.485 for the second.

First: PMDGEYFTLQI [TP53_Y327_L323M]
Second: RKRQFYLFKGK [RSPO4_Y112_C107R_YF]
The phosphorylation enrichment of the first is higher: 2.79 for the first, 1.19 for the second.

First: YSIAQYCCRMG [LRRK2_Y2023_G2019S]
Second: TTEHIYGDNFF [UBA7_Y524]
The phosphorylation enrichment of the first is lower: 0.911 for the first, 2.41 for the second.

Going from KVALLYKPYFY [POLE_Y100_P99L] to AVLALHNSTRD [TGFB1_Y81_Y81H], the phosphorylation enrichment falls from 0.514 to 0.359.

First: PNQRRYVYYYS [PTEN_Y174_S170N]
Second: GFCSWYRGWAP [TIMP3_Y195_YF]
The phosphorylation enrichment of the first is higher: 1.29 for the first, 0.497 for the second.

Compared with PFSEPYADFGG [APBA1_Y187_YF], EREFKYDAHNF [OAT_Y50_G51D_YF] is lower in phosphorylation enrichment: 0.786 for the first, 0.558 for the second.

First: YLRTGYSVPYG [TGM1_Y370]
Second: YKGKNYKPLDL [RPL35_Y78_K77N]
The phosphorylation enrichment of the first is higher: 0.493 for the first, 0.276 for the second.

First: TEQDPYNNIDR [MMUT_Y364_V368D]
Second: LRLSSYSTTIR [CYP7B1_Y365]
The phosphorylation enrichment of the first is lower: 0.501 for the first, 0.615 for the second.

First: ANNPLYKEATP [ITGB3_Y773_S778P]
Second: VMAALYGRLYE [BTD_Y536_T532M]
The phosphorylation enrichment of the first is lower: 0.4 for the first, 5.58 for the second.

Compared with TNFRLYLRSLE [MTM1_Y71_YF], CITIHYNYMCN [TP53_Y234_T230I] is lower in phosphorylation enrichment: 0.513 for the first, 0.44 for the second.

First: VVQGIYGYHHY [UFSP2_Y285]
Second: VDASFYGGRGV [ANTXR2_Y381_YF]
The phosphorylation enrichment of the first is higher: 10.5 for the first, 0.91 for the second.

GEEIKYMLWLL [OTC_Y55_S60L] was tested, and the phosphorylation enrichment was 0.663.

target: Jak2 (UniProt O60674); assay: as above
Sequence (O60674 whole entry, looked up): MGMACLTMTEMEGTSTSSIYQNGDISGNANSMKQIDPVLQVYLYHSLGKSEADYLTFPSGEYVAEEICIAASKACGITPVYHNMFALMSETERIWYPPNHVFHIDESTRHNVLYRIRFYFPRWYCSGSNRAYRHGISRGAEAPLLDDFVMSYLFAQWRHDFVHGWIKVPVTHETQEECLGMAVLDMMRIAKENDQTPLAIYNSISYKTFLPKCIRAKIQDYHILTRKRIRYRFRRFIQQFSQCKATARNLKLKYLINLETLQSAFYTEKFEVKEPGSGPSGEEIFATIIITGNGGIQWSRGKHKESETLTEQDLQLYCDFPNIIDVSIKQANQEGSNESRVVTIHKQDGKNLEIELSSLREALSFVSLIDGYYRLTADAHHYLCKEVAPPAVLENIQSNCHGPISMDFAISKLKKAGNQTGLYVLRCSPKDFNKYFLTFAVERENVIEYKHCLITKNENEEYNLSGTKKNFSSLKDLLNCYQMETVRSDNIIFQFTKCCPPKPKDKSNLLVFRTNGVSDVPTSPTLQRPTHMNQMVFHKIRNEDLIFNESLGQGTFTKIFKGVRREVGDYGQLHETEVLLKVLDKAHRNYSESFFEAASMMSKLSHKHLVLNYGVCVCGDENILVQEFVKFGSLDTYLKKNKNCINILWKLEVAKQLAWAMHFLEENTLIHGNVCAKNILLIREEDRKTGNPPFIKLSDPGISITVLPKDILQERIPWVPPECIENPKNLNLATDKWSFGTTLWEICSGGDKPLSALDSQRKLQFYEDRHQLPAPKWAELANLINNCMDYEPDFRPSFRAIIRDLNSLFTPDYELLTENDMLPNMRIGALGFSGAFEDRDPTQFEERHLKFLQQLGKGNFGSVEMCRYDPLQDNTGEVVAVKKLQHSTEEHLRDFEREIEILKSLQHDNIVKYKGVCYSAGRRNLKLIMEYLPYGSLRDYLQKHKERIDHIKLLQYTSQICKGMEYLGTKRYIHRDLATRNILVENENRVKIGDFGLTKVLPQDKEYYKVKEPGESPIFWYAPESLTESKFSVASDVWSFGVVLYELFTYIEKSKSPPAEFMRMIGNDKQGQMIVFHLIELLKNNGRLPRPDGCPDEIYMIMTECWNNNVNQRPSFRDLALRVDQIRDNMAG

First: ADFPDYKFRPR [SOX11_Y116_YF]
Second: KLSFSYGQALQ [ALDOB_Y302_R304Q]
The phosphorylation enrichment of the first is lower: 0.728 for the first, 1.03 for the second.

Going from FSEVRYVKEPF [HIPK4_Y170_YF] to VIDGKYAFKPK [GTF2E2_Y137], the phosphorylation enrichment falls from 0.584 to 0.421.

Going from DIPIRYSITGV [CDH4_Y205] to VVKLAYNENDN [CAMKK2_Y183], the phosphorylation enrichment falls from 0.85 to 0.624.

First: VQEDIYDEFVV [ALDH2_Y332_E337V]
Second: IRKKYYRAILE [CHD7_Y1218_Q1214R]
The phosphorylation enrichment of the first is higher: 1.37 for the first, 0.439 for the second.

Compared with PMDGEYFTLQI [TP53_Y327_L323M], RKRQFYLFKGK [RSPO4_Y112_C107R_YF] is lower in phosphorylation enrichment: 4.86 for the first, 1.06 for the second.

Going from YSIAQYCCRMG [LRRK2_Y2023_G2019S] to TTEHIYGDNFF [UBA7_Y524], the phosphorylation enrichment rises from 0.574 to 0.671.

Compared with KVALLYKPYFY [POLE_Y100_P99L], AVLALHNSTRD [TGFB1_Y81_Y81H] is lower in phosphorylation enrichment: 0.977 for the first, 0.519 for the second.

First: PNQRRYVYYYS [PTEN_Y174_S170N]
Second: GFCSWYRGWAP [TIMP3_Y195_YF]
The phosphorylation enrichment of the first is higher: 1.37 for the first, 1.2 for the second.

Compared with PFSEPYADFGG [APBA1_Y187_YF], EREFKYDAHNF [OAT_Y50_G51D_YF] is lower in phosphorylation enrichment: 0.991 for the first, 0.914 for the second.

First: YLRTGYSVPYG [TGM1_Y370]
Second: YKGKNYKPLDL [RPL35_Y78_K77N]
The phosphorylation enrichment of the first is higher: 0.893 for the first, 0.59 for the second.

First: TEQDPYNNIDR [MMUT_Y364_V368D]
Second: LRLSSYSTTIR [CYP7B1_Y365]
The phosphorylation enrichment of the first is lower: 0.791 for the first, 0.936 for the second.

Going from ANNPLYKEATP [ITGB3_Y773_S778P] to VMAALYGRLYE [BTD_Y536_T532M], the phosphorylation enrichment rises from 0.657 to 0.864.

Compared with TNFRLYLRSLE [MTM1_Y71_YF], CITIHYNYMCN [TP53_Y234_T230I] is lower in phosphorylation enrichment: 1.29 for the first, 0.881 for the second.

First: VVQGIYGYHHY [UFSP2_Y285]
Second: VDASFYGGRGV [ANTXR2_Y381_YF]
The phosphorylation enrichment of the first is higher: 0.683 for the first, 0.574 for the second.

In the case of GEEIKYMLWLL [OTC_Y55_S60L], the phosphorylation enrichment is reported as 0.912.

target: MERTK (UniProt Q12866); assay: as above
Sequence (Q12866 whole entry, looked up): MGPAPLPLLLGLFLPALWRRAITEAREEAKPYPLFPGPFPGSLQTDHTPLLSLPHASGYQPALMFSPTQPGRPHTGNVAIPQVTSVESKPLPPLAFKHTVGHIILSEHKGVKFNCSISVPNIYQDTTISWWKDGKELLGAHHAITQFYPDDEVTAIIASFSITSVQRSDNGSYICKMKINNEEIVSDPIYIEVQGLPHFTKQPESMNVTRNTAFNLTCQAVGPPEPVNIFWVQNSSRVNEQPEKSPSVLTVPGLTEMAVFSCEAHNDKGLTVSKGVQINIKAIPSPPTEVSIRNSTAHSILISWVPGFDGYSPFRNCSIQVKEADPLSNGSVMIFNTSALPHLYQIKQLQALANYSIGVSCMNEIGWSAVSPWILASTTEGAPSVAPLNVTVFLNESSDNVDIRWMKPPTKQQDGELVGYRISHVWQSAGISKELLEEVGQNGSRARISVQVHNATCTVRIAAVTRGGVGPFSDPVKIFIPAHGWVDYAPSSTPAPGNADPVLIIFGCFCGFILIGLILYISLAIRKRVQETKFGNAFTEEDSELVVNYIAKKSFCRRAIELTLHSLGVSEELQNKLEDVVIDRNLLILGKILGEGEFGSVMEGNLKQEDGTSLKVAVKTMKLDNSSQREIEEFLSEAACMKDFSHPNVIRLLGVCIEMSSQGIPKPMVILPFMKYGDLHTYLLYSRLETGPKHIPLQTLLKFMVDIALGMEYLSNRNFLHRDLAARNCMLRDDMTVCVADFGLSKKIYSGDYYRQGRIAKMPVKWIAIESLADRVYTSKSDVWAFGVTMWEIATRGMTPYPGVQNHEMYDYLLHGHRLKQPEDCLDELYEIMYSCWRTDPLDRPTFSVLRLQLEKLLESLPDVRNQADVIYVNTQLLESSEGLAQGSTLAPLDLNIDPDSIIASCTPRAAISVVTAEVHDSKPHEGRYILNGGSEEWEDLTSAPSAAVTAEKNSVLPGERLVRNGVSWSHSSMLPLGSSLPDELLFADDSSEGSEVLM

Compared with ADFPDYKFRPR [SOX11_Y116_YF], KLSFSYGQALQ [ALDOB_Y302_R304Q] is higher in phosphorylation enrichment: 0.413 for the first, 0.437 for the second.

Going from FSEVRYVKEPF [HIPK4_Y170_YF] to VIDGKYAFKPK [GTF2E2_Y137], the phosphorylation enrichment falls from 0.414 to 0.323.

Going from DIPIRYSITGV [CDH4_Y205] to VVKLAYNENDN [CAMKK2_Y183], the phosphorylation enrichment falls from 0.405 to 0.374.

First: VQEDIYDEFVV [ALDH2_Y332_E337V]
Second: IRKKYYRAILE [CHD7_Y1218_Q1214R]
The phosphorylation enrichment of the first is higher: 3.17 for the first, 0.508 for the second.

First: PMDGEYFTLQI [TP53_Y327_L323M]
Second: RKRQFYLFKGK [RSPO4_Y112_C107R_YF]
The phosphorylation enrichment of the first is lower: 0.604 for the first, 1.22 for the second.

Going from YSIAQYCCRMG [LRRK2_Y2023_G2019S] to TTEHIYGDNFF [UBA7_Y524], the phosphorylation enrichment falls from 8.37 to 0.597.

Compared with KVALLYKPYFY [POLE_Y100_P99L], AVLALHNSTRD [TGFB1_Y81_Y81H] is lower in phosphorylation enrichment: 0.473 for the first, 0.398 for the second.

Compared with PNQRRYVYYYS [PTEN_Y174_S170N], GFCSWYRGWAP [TIMP3_Y195_YF] is lower in phosphorylation enrichment: 3.81 for the first, 0.498 for the second.

Going from PFSEPYADFGG [APBA1_Y187_YF] to EREFKYDAHNF [OAT_Y50_G51D_YF], the phosphorylation enrichment falls from 0.76 to 0.512.

Going from YLRTGYSVPYG [TGM1_Y370] to YKGKNYKPLDL [RPL35_Y78_K77N], the phosphorylation enrichment falls from 0.666 to 0.333.

First: TEQDPYNNIDR [MMUT_Y364_V368D]
Second: LRLSSYSTTIR [CYP7B1_Y365]
The phosphorylation enrichment of the first is lower: 0.475 for the first, 0.686 for the second.

Going from ANNPLYKEATP [ITGB3_Y773_S778P] to VMAALYGRLYE [BTD_Y536_T532M], the phosphorylation enrichment rises from 0.521 to 3.

Going from TNFRLYLRSLE [MTM1_Y71_YF] to CITIHYNYMCN [TP53_Y234_T230I], the phosphorylation enrichment falls from 0.43 to 0.389.

Compared with VVQGIYGYHHY [UFSP2_Y285], VDASFYGGRGV [ANTXR2_Y381_YF] is lower in phosphorylation enrichment: 11.3 for the first, 0.377 for the second.

Sequence GEEIKYMLWLL [OTC_Y55_S60L] has a phosphorylation enrichment of 1.58.

tested on: c-Abl (mouse); assay: as above

First: ADFPDYKFRPR [SOX11_Y116_YF]
Second: KLSFSYGQALQ [ALDOB_Y302_R304Q]
The phosphorylation enrichment of the first is lower: 0.403 for the first, 0.686 for the second.

Going from FSEVRYVKEPF [HIPK4_Y170_YF] to VIDGKYAFKPK [GTF2E2_Y137], the phosphorylation enrichment falls from 0.676 to 0.585.

Compared with DIPIRYSITGV [CDH4_Y205], VVKLAYNENDN [CAMKK2_Y183] is lower in phosphorylation enrichment: 0.641 for the first, 0.592 for the second.

Compared with VQEDIYDEFVV [ALDH2_Y332_E337V], IRKKYYRAILE [CHD7_Y1218_Q1214R] is lower in phosphorylation enrichment: 1.75 for the first, 0.478 for the second.

First: PMDGEYFTLQI [TP53_Y327_L323M]
Second: RKRQFYLFKGK [RSPO4_Y112_C107R_YF]
The phosphorylation enrichment of the first is higher: 2.02 for the first, 1.25 for the second.

Compared with YSIAQYCCRMG [LRRK2_Y2023_G2019S], TTEHIYGDNFF [UBA7_Y524] is lower in phosphorylation enrichment: 5.03 for the first, 0.754 for the second.

Going from KVALLYKPYFY [POLE_Y100_P99L] to AVLALHNSTRD [TGFB1_Y81_Y81H], the phosphorylation enrichment falls from 0.866 to 0.494.

Going from PNQRRYVYYYS [PTEN_Y174_S170N] to GFCSWYRGWAP [TIMP3_Y195_YF], the phosphorylation enrichment rises from 0.841 to 0.912.

Compared with PFSEPYADFGG [APBA1_Y187_YF], EREFKYDAHNF [OAT_Y50_G51D_YF] is lower in phosphorylation enrichment: 1.38 for the first, 0.645 for the second.

First: YLRTGYSVPYG [TGM1_Y370]
Second: YKGKNYKPLDL [RPL35_Y78_K77N]
The phosphorylation enrichment of the first is higher: 0.777 for the first, 0.575 for the second.

First: TEQDPYNNIDR [MMUT_Y364_V368D]
Second: LRLSSYSTTIR [CYP7B1_Y365]
The phosphorylation enrichment of the first is lower: 0.658 for the first, 0.676 for the second.

Going from ANNPLYKEATP [ITGB3_Y773_S778P] to VMAALYGRLYE [BTD_Y536_T532M], the phosphorylation enrichment rises from 0.623 to 0.8.

First: TNFRLYLRSLE [MTM1_Y71_YF]
Second: CITIHYNYMCN [TP53_Y234_T230I]
The phosphorylation enrichment of the first is higher: 0.798 for the first, 0.582 for the second.

First: VVQGIYGYHHY [UFSP2_Y285]
Second: VDASFYGGRGV [ANTXR2_Y381_YF]
The phosphorylation enrichment of the first is higher: 7.67 for the first, 0.443 for the second.

With GEEIKYMLWLL [OTC_Y55_S60L] the phosphorylation enrichment was 0.77.
